Like-named read-outs stand apart in the source and are kept apart here.
What was measured:
full length human 5T4 [1] = target: T1, full length human 5T4 (human, UniProt Q13641 32-420); assay: flow cytometry, HEK-293 cells transfected with human 5T4 (left panel), PE anti-human IgG F(ab')2, MFI PE
T1 construct: Uniprot Q13641; Used here also for endogenous 5T4 on the human tumour cell lines
T1 sequence: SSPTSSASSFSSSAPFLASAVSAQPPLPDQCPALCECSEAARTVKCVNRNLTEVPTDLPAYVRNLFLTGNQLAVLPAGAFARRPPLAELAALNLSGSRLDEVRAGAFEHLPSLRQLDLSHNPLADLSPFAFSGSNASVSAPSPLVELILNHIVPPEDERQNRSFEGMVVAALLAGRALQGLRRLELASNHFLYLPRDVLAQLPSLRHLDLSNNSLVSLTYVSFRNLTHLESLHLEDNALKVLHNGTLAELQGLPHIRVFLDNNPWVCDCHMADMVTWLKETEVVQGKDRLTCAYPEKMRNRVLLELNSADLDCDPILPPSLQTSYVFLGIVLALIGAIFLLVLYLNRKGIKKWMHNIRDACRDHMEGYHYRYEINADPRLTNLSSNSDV

[2] = target: T2, full length cynomolgus monkey 5T4 (cynomolgus monkey, UniProt Q4R8Y9 35-420); assay: flow cytometry, HEK-293 cells transfected with cynomolgus monkey 5T4 (right panel), PE anti-human IgG F(ab')2, MFI PE
T2 construct: Uniprot Q4R8Y9; also called cynomolgus monkey 5T4 on HEK-293 cells
T2 sequence: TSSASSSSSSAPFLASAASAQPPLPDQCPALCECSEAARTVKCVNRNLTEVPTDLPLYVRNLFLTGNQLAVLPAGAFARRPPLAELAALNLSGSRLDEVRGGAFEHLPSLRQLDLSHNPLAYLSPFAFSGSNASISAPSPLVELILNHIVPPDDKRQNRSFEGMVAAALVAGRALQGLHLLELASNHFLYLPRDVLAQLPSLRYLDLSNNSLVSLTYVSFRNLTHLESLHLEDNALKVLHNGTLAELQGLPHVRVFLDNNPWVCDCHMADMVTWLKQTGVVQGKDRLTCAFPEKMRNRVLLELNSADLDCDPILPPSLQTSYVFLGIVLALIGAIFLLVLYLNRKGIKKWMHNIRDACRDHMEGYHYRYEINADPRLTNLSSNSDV

[3] = target: T2, full length cynomolgus monkey 5T4; assay: as above; remark: listed apart in the source
full length human 5T4 [4] = target: T1, full length human 5T4; assay: flow cytometry, HeLa cells, PE anti-human IgG F(ab')2, MFI PE
[5] = target: T2, full length cynomolgus monkey 5T4; assay: flow cytometry, HEK-293 cells transfected with cynomolgus monkey 5T4 (right panel), PE anti-human IgG F(ab')2, MFI PE; remark: listed apart in the source
full length human 5T4 [6] = target: T1, full length human 5T4; assay: flow cytometry, HeLa cells, PE anti-human IgG F(ab')2, MFI PE; remark: listed apart in the source
[7] = target: T2, full length cynomolgus monkey 5T4; assay: flow cytometry, HEK-293 cells transfected with cynomolgus monkey 5T4 (right panel), PE anti-human IgG F(ab')2, MFI PE; remark: listed apart in the source
[8] = target: T2, full length cynomolgus monkey 5T4; assay: as above; remark: listed apart in the source
full length human 5T4 [9] = target: T1, full length human 5T4; assay: flow cytometry, HEK-293 cells transfected with human 5T4 (left panel), PE anti-human IgG F(ab')2, MFI PE; remark: listed apart in the source

B1: bsIgG1-huCD3-H101G-FEALx5T4-076-FEAR (bispecific antibody)
heavy 1: not shown
VL: not shown
heavy 2: QVQLVQSGAEVKKPGASVKVSCKASGYTFTSYGISWVRQAPGQGLEWMGWISAYNGNTNYAQKLQGRVTMTTDTSTRTAYMELRSLRSDDTAVYYCARDPGYFDWLYGDYWGQGTLVTVSSASTKGPSVFPLAPSSKSTSGGTAALGCLVKDYFPEPVTVSWNSGALTSGVHTFPAVLQSSGLYSLSSVVTVPSSSLGTQTYICNVNHKPSNTKVDKRVEPKSCDKTHTCPPCPAPEFEGGPSVFLFPPKPKDTLMISRTPEVTCVVVAVSHEDPEVKFNWYVDGVEVHNAKTKPREEQYNSTYRVVSVLTVLHQDWLNGKEYKCKVSNKALPAPIEKTISKAKGQPREPQVYTLPPSREEMTKNQVSLTCLVKGFYPSDIAVEWESNGQPENNYKTTPPVLDSDGSFFLYSRLTVDKSRWQQGNVFSCSVMHEALHNHYTQKSLSLSPGK
light: not shown
With B1 the binding result (full length human 5T4 [1]) was “binds” and the “EC50 (read off the curve)” value [2] was roughly 0.4 µg/mL.

B2: bsIgG1-huCD3-H101G-FEALx5T4-127-FEAR (bispecific antibody)
heavy 1: not shown
VL: not shown
heavy 2: EVQLLESRGGLVQPGGSLRLSCAASGFTFSSYAMSWVRQAPGKGLEWVSTISGSGGSTYYADSVKGRFTISRDNSKKTLYLQMNSLRAEDTAVYYCAKDWGSGSYPAEYFQHWGQGTLVTVSSASTKGPSVFPLAPSSKSTSGGTAALGCLVKDYFPEPVTVSWNSGALTSGVHTFPAVLQSSGLYSLSSVVTVPSSSLGTQTYICNVNHKPSNTKVDKRVEPKSCDKTHTCPPCPAPEFEGGPSVFLFPPKPKDTLMISRTPEVTCVVVAVSHEDPEVKFNWYVDGVEVHNAKTKPREEQYNSTYRVVSVLTVLHQDWLNGKEYKCKVSNKALPAPIEKTISKAKGQPREPQVYTLPPSREEMTKNQVSLTCLVKGFYPSDIAVEWESNGQPENNYKTTPPVLDSDGSFFLYSRLTVDKSRWQQGNVFSCSVMHEALHNHYTQKSLSLSPGK
light: not shown
In the case of B2, the “EC50 (read off the curve)” value [3] is reported as roughly 0.1 µg/mL.

B3: bsIgG1-huCD3-H101G-FEALx5T4-A3-FEAR (bispecific antibody)
heavy 1: not shown
VL 1: not shown
heavy 2: EVQLVESGGGLVQPKGSLKLSCAASGFTFNTYAMNWVRQAPGKGLEWVARIRSKSNNYATYYADSVKDRFTISRDDSQSMLYLQMNNLKTEDTAMYYCVRQWDYDVRAMNYWGQGTSVTVSSASTKGPSVFPLAPSSKSTSGGTAALGCLVKDYFPEPVTVSWNSGALTSGVHTFPAVLQSSGLYSLSSVVTVPSSSLGTQTYICNVNHKPSNTKVDKRVEPKSCDKTHTCPPCPAPEFEGGPSVFLFPPKPKDTLMISRTPEVTCVVVAVSHEDPEVKFNWYVDGVEVHNAKTKPREEQYNSTYRVVSVLTVLHQDWLNGKEYKCKVSNKALPAPIEKTISKAKGQPREPQVYTLPPSREEMTKNQVSLTCLVKGFYPSDIAVEWESNGQPENNYKTTPPVLDSDGSFFLYSRLTVDKSRWQQGNVFSCSVMHEALHNHYTQKSLSLSPGK
VL 2: DIVMTQSHIFMSTSVGDRVSITCKASQDVDTAVAWYQQKPGQSPKLLIYWASTRLTGVPDRFTGSGSGTDFTLTISNVQSEDLADYFCQQYSSYPYTFGGGTKLEIK
B3: binds (full length human 5T4 [4]); binds [5].

B4: bsIgG1-huCD3-H101G-FEALx5T4-A1-FEAR (bispecific antibody)
heavy 1: not shown
VL 1: not shown
heavy 2: QIQLVQSGPELKKPGETVKISCKASGYTFTNFGMNWVKQGPGEGLKWMGWINTNTGEPRYAEEFKGRFAFSLETTASTAYLQINNLKNEDTATYFCARDWDGAYFFDYWGQGTTLTVSSASTKGPSVFPLAPSSKSTSGGTAALGCLVKDYFPEPVTVSWNSGALTSGVHTFPAVLQSSGLYSLSSVVTVPSSSLGTQTYICNVNHKPSNTKVDKRVEPKSCDKTHTCPPCPAPEFEGGPSVFLFPPKPKDTLMISRTPEVTCVVVAVSHEDPEVKFNWYVDGVEVHNAKTKPREEQYNSTYRVVSVLTVLHQDWLNGKEYKCKVSNKALPAPIEKTISKAKGQPREPQVYTLPPSREEMTKNQVSLTCLVKGFYPSDIAVEWESNGQPENNYKTTPPVLDSDGSFFLYSRLTVDKSRWQQGNVFSCSVMHEALHNHYTQKSLSLSPGK
VL 2: SIVMTQTPKFLLVSAGDRVTITCKASQSVSNDVAWYQQKPGQSPKLLINFATNRYTGVPNRFTGSGYGTDFTFTISTVQAEDLALYFCQQDYSSPWTFGGGTKLEIK
B4: binds (full length human 5T4 [6]); binds [7].

B5: bsIgG1-huCD3-H101G-FEALx5T4-085-FEAR (bispecific antibody)
heavy 1: not shown
VL: not shown
heavy 2: EVQLLESGGGLVQPGGSLRLSCAASGFTFSSYAMSWVRQAPGKGLEWVSAISGSGGSTYNADSVKGRFTIFRDNSKNTLYLHMNSLRAEDTAVYYCARDPGYNNVEYLDHWGQGTLVTVSSASTKGPSVFPLAPSSKSTSGGTAALGCLVKDYFPEPVTVSWNSGALTSGVHTFPAVLQSSGLYSLSSVVTVPSSSLGTQTYICNVNHKPSNTKVDKRVEPKSCDKTHTCPPCPAPEFEGGPSVFLFPPKPKDTLMISRTPEVTCVVVAVSHEDPEVKFNWYVDGVEVHNAKTKPREEQYNSTYRVVSVLTVLHQDWLNGKEYKCKVSNKALPAPIEKTISKAKGQPREPQVYTLPPSREEMTKNQVSLTCLVKGFYPSDIAVEWESNGQPENNYKTTPPVLDSDGSFFLYSRLTVDKSRWQQGNVFSCSVMHEALHNHYTQKSLSLSPGK
light: not shown
In the case of B5, the “EC50 (read off the curve)” value [8] is reported as roughly 0.4 µg/mL and the “EC50 (read off the curve)” value (full length human 5T4 [9]) is reported as roughly 0.5 µg/mL.
